Earlier results as cited in publication PMC3277744.

Biological target: Bcl-XL (Homo sapiens) (UniProt Q07817)
Sequence (Q07817 whole entry): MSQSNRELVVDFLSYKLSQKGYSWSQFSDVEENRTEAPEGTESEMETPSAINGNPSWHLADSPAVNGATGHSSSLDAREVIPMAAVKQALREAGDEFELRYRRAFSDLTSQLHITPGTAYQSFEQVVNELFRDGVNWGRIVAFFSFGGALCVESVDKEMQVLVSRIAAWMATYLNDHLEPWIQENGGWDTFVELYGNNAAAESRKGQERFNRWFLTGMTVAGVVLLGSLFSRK

Kd: 164 nM
Substance: p53 (from UniProt P04637)
